Reference: publication PMC13589956, “Engineered flavonoid disrupts mitochondrial AIF/CHCHD4 complex for targeted cancer therapy” (Acta Pharmaceutica Sinica. B, 2026)

Target: T1, HIS-AIF_(103-613) (human, UniProt O95831 103-613)
T1 construct: apoptosis-inducing factor (AIF, encoded by AIFM1), human, residues 103-613; also called apoptosis-inducing factor; source: E. coli BL21+DE3(RIPL), 0.5 mmol/L IPTG 3 h at 37 °C, purified
Assay: AlphaScreen or HTRF; His-AIF_(103-613) (5 μL at 300 nmol/L) and GST-CHCHD4 (5 μL at 100 nmol/L, 2 h) coupled by their tags to donor and acceptor beads (5 μg/mL, 3 h at 23 °C in the dark); 384-well plates, 25 μL, 0.1% BSA/PBS; N27 at 3 μmol/L as positive control of inhibition
Details: both partners purified

T1 sequence (O95831 103-613): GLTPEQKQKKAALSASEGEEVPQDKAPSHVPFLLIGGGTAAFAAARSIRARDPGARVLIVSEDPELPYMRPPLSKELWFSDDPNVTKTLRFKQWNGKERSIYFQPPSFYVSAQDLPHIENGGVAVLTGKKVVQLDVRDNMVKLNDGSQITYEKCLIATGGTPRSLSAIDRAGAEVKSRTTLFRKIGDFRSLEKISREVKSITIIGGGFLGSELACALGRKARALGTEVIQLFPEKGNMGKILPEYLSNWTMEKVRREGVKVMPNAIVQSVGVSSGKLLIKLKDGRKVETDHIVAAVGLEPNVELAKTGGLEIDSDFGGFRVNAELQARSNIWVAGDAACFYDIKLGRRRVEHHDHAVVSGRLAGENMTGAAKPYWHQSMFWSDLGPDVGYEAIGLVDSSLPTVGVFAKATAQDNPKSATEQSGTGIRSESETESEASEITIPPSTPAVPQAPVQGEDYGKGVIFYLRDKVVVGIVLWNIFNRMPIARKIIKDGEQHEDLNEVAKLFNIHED

| binding result | Binder |
| --- | --- |
| binds | GST-CHCHD4 (natural protein, human, UniProt Q8N4Q1 1-142, looked up, coiled-coil-helix-coiled-coil-helix domain-containing protein 4 (CHCHD4), human; it is printed both as GST-CHCHD4 and as CHCHD4-Gst; also called CHCHD4-Gst; coiled-coil-helix-coiled-coil-helix domain-containing protein 4; source: E. coli BL21+DE3(RIPL), 0.5 mmol/L IPTG 3 h at 37 °C, purified) MSYCRQEGKDRIIFVTKEDHETPSSAELVADDPNDPYEEHGLILPNGNINWNCPCLGGMASGPCGEQFKSAFSCFHYSTEEIKGSDCVDQFRAMQECMQKYPDLYPQEDEDEEEEREKKPAEQAEETAPIEATATKEEEGSS |
| binds | MSYCRQEGKDRIIFVTKEDHETPSSAE (peptide, UniProt Q8N4Q1 1-27, looked up, synthetic peptide corresponding to the N-terminal 27 amino acids of CHCHD4; source: synthetic peptide) [peptide N27] |
